Patent US11999771B2, “IL-7Rαγc ligand immunoglobulin fusion proteins” (MEDIKINE, INC., priority 2022, dated 2024)

Experiment: Pharmacokinetics of the IL-7Rαγc IgG2-Fc fusion protein in non-human primates (serum level quantified by TF-1-7Rα STAT5 phosphorylation bioassay)
Format: in vivo
Details: single dose of 1 mg/kg
Description: A pharmacokinetic study of an IL-7Rαγc IgG2-Fc fusion protein was performed in non-human primates. The IL-7Rαγc IgG2-Fc fusion having SEQ ID NO: 45 was administered intravenously (IV), subcutaneously (SC), or intramuscularly (IM) with a single dose of 1 mg/kg into each non-human primate (n=10). Blood samples were collected at times post-dose into serum separator vials. Samples were centrifuged at 10,000× g for 5 min at 4° C. followed by transferring the serum to a new tube. Samples were frozen and stored at −80° C. prior to testing.
The TF-1-7Rα STAT5 phosphorylation bioassay was used to quantity the amount of the IL-7Rαγc IgG2-Fc fusion in each of the serum samples. Three-fold serial dilutions of each serum sample or a compound reference standard in starvation media were added to the cells and incubated for 30 mins with the cells. Cells extracts were prepared and the quantity of phosphorylated STAT5 was determined as described in Example 3. The IL-7Rαγc IgG2-Fc fusion protein concentration in each serum sample was calculated using a standard curve generated from the reference standard.

B1: hu-IgG2-Fc-(GS)10GG-IL-7Raγc (protein)
chain: ERKSSVECPPCPAPPVAGPSVFLFPPKPKDTLMISRTPEVTCVVVDVSHEDPEVQFNWYVDGVEVHNAKTKPREEQFNSTFRVVSVLTVVHQDWLNGKEYKCKVSNKGLPAPIEKTISKTKGQPREPQVYTLPPSREEMTKNQVSLTCLVKGFYPSDIAVEWESNGQPENNYKTTPPMLDSDGSFFLYSKLTVDKSRWQQGNVFSCSVMHEALHNHYTQKSLSLSPGAGSGSGSGSGSGSGSGSGSGSGGGWGIPWCTLDPGSLQCAWLGKHGGGGSGGVVCQDWEGVELCWQGG
notes: IL-7R agonist
For B1, which “bioavailability % F for IM administration” value (intramuscular vs intravenous) is on record?
Its value is 117%.

And the “bioavailability % F for SC administration” value (subcutaneous vs intravenous)?
The value was 112%.
